Experiment [1] deals with T1, recombinant SMase D LiD1 from L. intermedia (Loxosceles intermedia, UniProt P0CE81).
T1 construct: also called rLiD1; recombinant sphingomyelinase D
The experiment is described as follows: ELISA. To be noted: both partners purified.

In experiment [2] the target is T1, recombinant SMase D LiD1 from L. …. The experiment in a line: SPR. To be noted: both partners purified.

Results on three molecules are retold here after publication PMC7232456, “Loxoscelism: Advances and Challenges in the Design of Antibody Fragments with Therapeutic Potential” (Toxins, 2020).

Substitutions are numbered along the chain they refer to.

T1 sequence (P0CE81 27-306): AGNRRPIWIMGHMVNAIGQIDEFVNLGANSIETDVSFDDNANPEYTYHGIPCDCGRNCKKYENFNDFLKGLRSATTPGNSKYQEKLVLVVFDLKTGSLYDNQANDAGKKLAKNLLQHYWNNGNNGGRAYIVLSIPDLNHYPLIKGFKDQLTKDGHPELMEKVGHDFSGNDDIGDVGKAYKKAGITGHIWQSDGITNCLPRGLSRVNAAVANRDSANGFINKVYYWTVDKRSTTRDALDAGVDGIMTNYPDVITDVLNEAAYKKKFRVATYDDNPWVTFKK

B1: scFv15hLi7m (scFv, V domains shown)
VH: QVQLQQSGAEVKKPGASVKVSCKASGYAFSSSWMNWVRQAPGQGLEWMGRIYPGDGDTNYNQKFQGRVTMTRDTSTSTVYMELSSLRSEDTAVYFCARWTYGYSKYYYFDDWGQGTLVTVSS
VL: DIQMTQSPSSLSASVGDRVTITCRASQSLLWNVNENNYLSWYQQKQGKAPKLLIYGASILESGVPSRFSGSGSGTDFTLTISSLQPEDFATYYCQHNHGSFLPYTFGQGTKLEIK
notes: also called second generation of the humanized scFv; monomeric scFv
Regarding B1, the binding result in experiment [1] is on record as “binds”.

B2: scFv15hLi7 (scFv, V domains shown)
VH: B1 VH with F95Y
VL: B1 VL with Q46P
notes: also called humanized scFv; first generation of the humanized scFv
For B2, in experiment [2], the Kd is 56.6 nM, the off-rate (koff) is 0.0103 s⁻¹ and the kon came out at 182000 M⁻¹ s⁻¹.

B3: scFv5hLi7m (scFv, V domains shown)
VH: B1 VH
VL: B1 VL
notes: also called (scFv5hLi7m)2; dimeric scFv5hLi7m
B3: in experiment [1], the binding result was “binds”.
